Test results from article PMC7405809.

Columns and labels:
[1] = target: BFL-1ΔC C4S/C19S conjugated to 4E14 at C55 (UniProt Q16548); test: fluorescence polarisation
His6-BFL-1ΔC C4S/C19S = His6-BFL-1ΔC C4S/C19S (UniProt Q16548); test: fluorescence polarisation

- EC50 [1]: 1300 nM
- EC50 (His6-BFL-1ΔC C4S/C19S): 23 nM
Substance: FITC-BID BH3 peptide
